Data: PMC11134845

Molecular target: HSV-2G gB ectodomain (recombinant glycoprotein B of Herpes simplex virus 2 strain G, aa 22-724) (Herpes simplex virus 2 (strain G))
Test: cryo-EM structure

“HSV-2G gB ectodomain (recombinant glycoprotein B of Herpes simplex virus 2 strain G, aa 22-724) (domain or fragment)” showed a stoichiometry N of 3.
